Assay results as given in patent publication US20110150914A1, “COMPOSITIONS AND METHODS FOR DENGUE VIRUS (DV) TREATMENT AND VACCINATION” (priority 2008, published 2011).

Experiments:
[1] = biological target: H-2 K^b (mouse; human), P61769
[2] = biological target: H-2 D^b (mouse; human), P61769

Binder	IC50 [1] [nM]	IC50 [2] [nM]
RMLINRFTM (modifications not checked) [NS5237-45]	> 2000	21
MTMRCIGI (modifications not checked) [E-2-6]	1080	
FSLGVLGM (modifications not checked) [NS2A8-15]		1800
YSQVNPITL (modifications not checked) [NS4B99-107]	1890	1.3
RALIFILL (modifications not checked) [M60-67]	22	> 2000
TAIANQATV (modifications not checked) [NS4B66-74]	> 2000	1.3
VSWTMKIL (modifications not checked) [E451-458]	458	
VAVSFVTLI (modifications not checked) [NS2A36-44]	12	997
VAFLRFLTI (modifications not checked) [C51-59]	20	1380
LAVTIMAIL (modifications not checked) [NS2A145-153]	> 2000	644
GMLQGRGPL (modifications not checked) [C36-44]	1340	820
